This assay has as its target recombinant NRP1-derived trap consisting of the extracellular domain of NRP1 (UniProt O14786 22-856). The experiment in a line: SPR. (In SPR one partner is held on a chip, and binding of the other changes the refractive index at the surface.)

One may read the koff as a measure of how fast the partners let go of each other.

Sequence of recombinant NRP1-derived trap consisting of the extracellular domain of NRP1 (O14786 22-856): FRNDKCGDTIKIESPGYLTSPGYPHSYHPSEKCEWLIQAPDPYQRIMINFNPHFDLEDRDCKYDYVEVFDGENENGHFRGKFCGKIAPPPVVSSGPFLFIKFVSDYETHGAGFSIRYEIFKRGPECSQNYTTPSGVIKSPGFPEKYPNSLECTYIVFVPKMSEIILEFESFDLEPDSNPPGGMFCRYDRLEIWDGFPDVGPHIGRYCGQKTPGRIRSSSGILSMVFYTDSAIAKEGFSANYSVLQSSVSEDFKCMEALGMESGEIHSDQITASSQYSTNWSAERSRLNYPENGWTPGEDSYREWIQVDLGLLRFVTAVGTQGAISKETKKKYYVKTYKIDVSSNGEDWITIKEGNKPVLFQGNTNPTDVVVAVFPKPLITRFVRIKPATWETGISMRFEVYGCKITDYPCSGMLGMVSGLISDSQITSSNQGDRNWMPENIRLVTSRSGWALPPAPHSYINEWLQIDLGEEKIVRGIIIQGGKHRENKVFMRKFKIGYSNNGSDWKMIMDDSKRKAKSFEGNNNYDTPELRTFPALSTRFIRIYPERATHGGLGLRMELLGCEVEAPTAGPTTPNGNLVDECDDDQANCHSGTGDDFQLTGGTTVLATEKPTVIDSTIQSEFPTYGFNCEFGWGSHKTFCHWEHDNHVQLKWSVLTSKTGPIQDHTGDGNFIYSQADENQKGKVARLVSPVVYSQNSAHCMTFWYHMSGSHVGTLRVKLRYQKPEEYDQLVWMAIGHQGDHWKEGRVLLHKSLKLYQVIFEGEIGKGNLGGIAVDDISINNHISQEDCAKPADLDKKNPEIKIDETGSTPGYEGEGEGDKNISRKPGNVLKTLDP

B1: Semaphorin 3A (ligand)
chain: NYQNGKNNVPRLKLSYKEMLESNNVITFNGLANSSSYHTFLLDEERSRLYVGAKDHIFSFDLVNIKDFQKIVWPVSYTRRDECKWAGKDILKECANFIKVLKAYNQTHLYACGTGAFHPICTYIEIGHHPEDNIFKLENSHFENGRGKSPYDPKLLTASLLIDGELYSGTAADFMGRDFAIFRTLGHHHPIRTEQHDSRWLNDPKFISAHLISESDNPEDDKVYFFFRENAIDGEHSGKATHARIGQICKNDFGGHRSLVNKWTTFLKARLICSVPGPNGIDTHFDELQDVFLMNFKDPKNPVVYGVFTTSSNIFKGSAVCMYSMSDVRRVFLGPYAHRDGPNYQWVPYQGRVPYPRPGTCPSKTFGGFDSTKDLPDDVITFARSHPAMYNPVFPMNNRPIVIKTDVNYQFTQIVVDRVDAEDGQYDVMFIGTDVGTVLKVVSIPKETWYDLEEVLLEEMTVFREPTAISAMELSTKQQQLYIGSTAGVAQLPLHRCDIYGKACAECCLARDPYCAWDGSACSRYFPTAKRRTRRQDIRNGDPLTHCSDLHHDNHHGHSPEERIIYGVENSSTFLECSPKSQRALVYWQFQRRNEERKEEIRVDDHIIRTDQGLLLRSLQQKDSGNYLCHAVEHGFIQTLLKVTLEVIDTEHLEELLHKDDDGDGSKTKEMSNSMTPSQKVWYRDFMQLINHPNLNTMDEFCEQVWKRDRKQRRQRPGHTPGNSNKWKHLQENKKGRNRRTHEFERAPRSV
Regarding B1, the koff turned out to be 0.000155 s⁻¹.

B2: vascular endothelial growth factor A (ligand)
chain: APMAEGGGQNHHEVVKFMDVYQRSYCHPIETLVDIFQEYPDEIEYIFKPSCVPLMRCGGCCNDEGLECVPTEESNITMQIMRIKPHQGQHIGEMSFLQHNKCECRPKKDRARQENPCGPCSERRKHLFVQDPQTCKCSCKNTDSRCKARQLELNERTCRCDKPRR
modifications: Assumed to be VEGF165, the customary recombinant product, because the isoform is not printed. Mature residues 1-165 equal entry residues 207-395 with the exon 6a region 321-345 replaced by the splice-junction Asn. K321N is this natural splice residue, not an engineered mutation. Disulfide-linked antiparallel homodimer.
Turning to B2, the koff amounted to 0.0012 s⁻¹.
